Measurements taken from publication PMC9087419 (European Journal of Immunology, 2022).

Columns and labels:
Assay in all cases: flow cytometry on cells
Conditions in all cases: one partner purified
[1] = target: T1, SARS‐CoV‐2 spike membrane protein of the Wuhan‐Hu‐1 strain (SARS-CoV-2 Wuhan-Hu-1 (QHD43416.1), UniProt P0DTC2)
T1 construct: source: HEK293, transiently cotransfected (PEI) with a GFP plasmid, on the cell surface

[2] = target: T2, SARS‐CoV‐2 spike membrane protein of the Delta variant (B.1.617.2) (SARS-CoV-2, Delta variant B.1.617.2, strain)
T2 construct: also called Delta spike protein

[3] = target: T3, SARS‐CoV‐2 spike membrane protein of the Omicron variant (B.1.1.529) (SARS-CoV-2, Omicron variant B.1.1.529, …, strain)
T3 construct: also called Omicron spike protein

| Binder | MdFI [1] | MdFI [2] | MdFI [3] |
| --- | --- | --- | --- |
| LY‐CoV555 (Bamlanivimab) (antibody, V domains shown) VH: QVQLVQSGAEVKKPGSSVKVSCKASGGTFSNYAISWVRQAPGQGLEWMGRIIPILGIANYAQKFQGRVTITADKSTSTAYMELSSLRSEDTAVYYCARGYYEARHYYYYYAMDVWGQGTAVTVSS VL: not shown | 355000 | 40000 |  |
| 8D2 (antibody, V domains shown) VH: EVQLVESGGGLVQPGGSLRLSCAASGFTFSSYWMSWVRQAPGKGLEWVANINQDGSEKYYVDSVKGRFTISRDNAKNSLYLQVNSLRAEDTAVYYCARDWDYDILTGSWFGAFDIWGQGTTVTVSS VL: DIQMTQSPSSLSASVGDRVTITCRASQGIRNDLGWYQQKPGKAPKRLIYAASSLQSGVPSRFSGSGSGTEFTLTISSLQPEDFATYYCLQHNSYPLTFGGGTKVEIK | 37000 |  |  |
| AZD8895 (Tixagevimab) (antibody, V domains shown) VH: QMQLVQSGPEVKKPGTSVKVSCKASGFTFMSSAVQWVRQARGQRLEWIGWIVIGSGNTNYAQKFQERVTITRDMSTSTAYMELSSLRSEDTAVYYCAAPYCSSISCNDGFDIWGQGTMVTVSS VL: not shown | 250000 | 59000 | 73000 |
| 3467 (antibody, V domains shown, also called TRIANNI mouse‐derived antibody 3467) VH: QVQLQESGPGLVKPSETLSLTCTVSGGSISSYHWNWIRQPPGKGLEWIGYIYYSGNTNYNPSLKSRVSISTDTSKNQFSLKLSSVTAADTAVYYCVREMRRGYSGYDYWDLYAFDIWGQGTMVTVSS VL: DIQLTQSPSFLSASVGDRVTITCRASQGISSYLAWYQQKPGKAPNLLIYAASTLQSGVPSRFSGSGSGTEFTLTISSLQPEDFATYYCQQLNSYPHTFGQGTKLEIK | 165000 | 31000 | 25000 |
| BMS‐986413 (C144) (antibody, V domains shown) VH: EVQLVESGGGLIQPGGSLRLSCAASGFTVSNNYMSWVRQAPGKGLEWVSVIYSGGSTYYADSVKGRFTISRDKSKNTLYLQMNRLRAEDTAVYYCAREGEVEGYNDFWSGYSRDRYYFDYWGQGTLVTVSS VL: QSALTQPASVSGSPGQSITISCTGTSSDVGGYNYVSWYQQHPGKAPKLMIYDVSNRPSGVSNRFSGSKSGNTASLTISGLQAEDEADYYCSSYTSSSTRVFGTGTKVTVL | 340000 | 408000 |  |
| REGN10987 (Imdevimab) (antibody, V domains shown) VH: QVQLVESGGGVVQPGRSLRLSCAASGFTFSNYAMYWVRQAPGKGLEWVAVISYDGSNKYYADSVKGRFTISRDNSKNTLYLQMNSLRTEDTAVYYCASGSDYGDYLLVYWGQGTLVTVSS VL: QSALTQPASVSGSPGQSITISCTGTSSDVGGYNYVSWYQQHPGKAPKLMIYDVSKRPSGVSNRFSGSKSGNTASLTISGLQSEDEADYYCNSLTSISTWVFGGGTKLTVL | 371000 | 471000 |  |
| LY‐CoV016 (Etesevimab) (antibody, V domains shown) VH: EVQLVESGGGLVQPGGSLRLSCAASGFTVSSNYMSWVRQAPGKGLEWVSVIYSGGSTFYADSVKGRFTISRDNSMNTLFLQMNSLRAEDTAVYYCARVLPMYGDYLDYWGQGTLVTVSS VL: not shown | 282000 | 192000 |  |
| AZD1061 (Cilgavimab) (antibody, V domains shown) VH: EVQLVESGGGLVKPGGSLRLSCAASGFTFRDVWMSWVRQAPGKGLEWVGRIKSKIDGGTTDYAAPVKGRFTISRDDSKNTLYLQMNSLKTEDTAVYYCTTAGSYYYDTVGPGLPEGKFDYWGQGTLVTVSS VL: not shown |  | 468000 | 101000 |
| BMS‐986414 (C135) (antibody, V domains shown) VH: QVQLVESGGGVVQPGRSLRLSCAASGFTFSSYAMHWVRQAPGKGLEWVAVIPFDGRNKYYADSVTGRFTISRDNSKNTLYLQMNSLRAEDTAVYYCASSSGYLFHSDYWGQGTLVTVSS VL: DIQMTQSPSTLSASVGDRVTITCRASQSISNWLAWFQQKPGKAPKLLIYEASSLESGVPSRFSGSGSGTEFTLTISSLQPDDFATYYCQQYNSYPWTFGQGTKVEIK |  | 666000 |  |
| S2H97 (antibody, V domains shown) VH: QVRLVQSGAEVKKSGESLKISCKGSGYSFTSYWIGWVRQMPGKGLEWMGIIYPGDSDTRYSPSFQGQVTISADKSISTVYLQWSSLKASDTAMYYCARQWSHYTYDYYYWGQGTLVTISS VL: QSVLTQPASVSGSPGQSITISCTGISSDVGGYNSVSWYQQHPGKAPKLMIYDVTNRPSGVSNRFSGSKSGNTASLTISGLQAEDEADYYCSSYTSSSTPPYVFGTGTKVSVL | 58000 | 74000 | 296000 |
| CT‐P59 (Regdanivimab) (antibody, V domains shown, also called Regdanvimab; Regkirona) VH: QITLKESGPTLVKPTQTLTLTCSFSGFSLSTSGVGVGWIRQPPGKALEWLALIDWDDNKYHTTSLKTRLTISKDTSKNQVVLTMTNMDPVDTATYYCARIPGFLRYRNRYYYYGMDVWGQGTTVTVSS VL: ELVLTQPPSVSAAPGQKVTISCSGSSSNIGNNYVSWYQQLPGTAPKLLIYDNNKRPSGIPDRFSGSKSGTSATLGITGLQTGDEADYYCGTWDSSLSAGVFGGGTELTVL | 131000 | 233000 |  |
| REGN10933 (Casirivimab) (antibody, V domains shown) VH: QVQLVESGGGLVKPGGSLRLSCAASGFTFSDYYMSWIRQAPGKGLEWVSYITYSGSTIYYADSVKGRFTISRDNAKSSLYLQMNSLRAEDTAVYYCARDRGTTMVPFDYWGQGTLVTVSS VL: DIQMTQSPSSLSASVGDRVTITCQASQDITNYLNWYQQKPGKAPKLLIYAASNLETGVPSRFSGSGSGTDFTFTISGLQPEDIATYYCQQYDNLPLTFGGGTKVEIK | 236000 | 148000 | 103000 |
